Data as given in patent US20060154864, “Transcript factor and an Akt substrate related to transcriptional action of insulin and applications of same” (Emory University, published 2006).

How the values were obtained:
[1] = test system: IRE-BP1 C-terminal fragment (3.4-kb cDNA) (Rattus norvegicus); experiment: cell_activity
NFkB p50 = NFkB p50 (UniProt P19838 P19838:1-433); experiment: EMSA; supershifted by p50 antibody; conditions: tags: E. coli-expressed; chain copies: 2; label: 32P
Sequence of NFkB p50 (P19838 1-433, one chain of several): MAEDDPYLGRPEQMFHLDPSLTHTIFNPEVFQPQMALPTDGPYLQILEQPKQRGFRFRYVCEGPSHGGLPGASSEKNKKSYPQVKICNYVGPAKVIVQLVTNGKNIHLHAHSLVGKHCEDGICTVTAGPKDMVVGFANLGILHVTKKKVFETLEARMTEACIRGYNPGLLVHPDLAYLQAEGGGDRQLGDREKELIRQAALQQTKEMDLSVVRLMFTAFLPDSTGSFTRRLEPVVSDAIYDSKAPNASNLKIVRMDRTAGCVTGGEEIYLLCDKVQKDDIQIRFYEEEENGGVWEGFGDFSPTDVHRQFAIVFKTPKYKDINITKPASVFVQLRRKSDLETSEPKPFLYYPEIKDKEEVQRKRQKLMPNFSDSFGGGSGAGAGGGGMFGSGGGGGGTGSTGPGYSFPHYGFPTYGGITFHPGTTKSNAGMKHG

## AATTCAAGGGTATCCAGGAAAGTCTCCTTCAAG (double strand) [IGFBP-3 IRE]
[1]; COS-7 luciferase, 2-fold on control vector
  activity: 14 fold

## GCCTCATTATTCCTGCCCACCAAT (double strand) [IGF-1 IRE]
[1]; COS-7 luciferase, basal, 3.5-fold with insulin
  activity: 4.7 fold

## GTTTGTTTTGCTAGT (double strand) [IGFBP-1 IRE]
[1]; with insulin, vs 24.7% vector alone, no basal effect, SEQ 50 inferred
  activity: 63.2 % decrease

B1: IGFBP-3 IRE (dsDNA)
DNA 1: AATTCAAGGGTATCCAGGAAAGTCTCCTTCAAG
DNA 2: CTTGAAGGAGACTTTCCTGGATACCCTTGAATT
NFkB p50
  binding result: binds
